Reference: paper PMC5240998, “Identification and Characterization of Single-Chain Antibodies that Specifically Bind GI Noroviruses” (PLoS ONE, 2017)

Molecular target: T1, GI.1 norovirus (Norwalk virus) virus-like particles (Norwalk virus (norovirus GI.1), UniProt Q83884 1-530)
T1 construct: major capsid protein VP1 (ORF2) of Norwalk virus, genotype GI.1, assembled into virus-like particles; also called GI.1 VLPs; GI.1 VLP; copies: 180
T1 sequence: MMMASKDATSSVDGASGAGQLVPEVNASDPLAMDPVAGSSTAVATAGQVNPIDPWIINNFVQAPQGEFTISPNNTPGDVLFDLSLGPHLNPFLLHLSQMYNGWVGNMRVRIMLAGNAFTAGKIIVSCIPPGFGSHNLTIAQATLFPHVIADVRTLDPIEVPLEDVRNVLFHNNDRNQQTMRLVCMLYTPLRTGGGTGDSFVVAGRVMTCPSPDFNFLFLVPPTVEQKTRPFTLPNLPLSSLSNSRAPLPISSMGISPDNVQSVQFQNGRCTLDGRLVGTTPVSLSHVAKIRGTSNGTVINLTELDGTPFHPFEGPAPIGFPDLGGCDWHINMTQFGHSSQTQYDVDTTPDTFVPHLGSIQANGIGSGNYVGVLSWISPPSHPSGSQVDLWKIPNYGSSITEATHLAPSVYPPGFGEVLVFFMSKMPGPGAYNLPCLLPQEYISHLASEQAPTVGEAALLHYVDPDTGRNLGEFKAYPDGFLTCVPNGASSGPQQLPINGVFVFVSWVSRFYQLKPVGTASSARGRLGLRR
Test: ELISA; phage ELISA: VLPs, P-domain, S-domain (CT303) or BSA coated directly on the plate (VLPs 5 ug/mL in PBS); 5 × 10^10 cfu phage per well in 1% MPBS, 2 h RT; detected with anti-M13 HRP; signal as ratio to M13KE phage
Details: both partners purified

B1: NV-N-R5-1 phage-displayed 12-mer peptide (peptide)
peptide: LPSWYLAYQKII
notes: source: first reported by Rogers et al [18]
binding result: binds
